From patent US20150344570A1 (published 2015)

T1: FcγRIIb extracellular domain with C-terminal His tag (human, UniProt P31994 43-217)
T1 construct: extracellular domain; also called 2b; FcgRIIb; not shown: His tag at the C terminus
T1 sequence (looked up): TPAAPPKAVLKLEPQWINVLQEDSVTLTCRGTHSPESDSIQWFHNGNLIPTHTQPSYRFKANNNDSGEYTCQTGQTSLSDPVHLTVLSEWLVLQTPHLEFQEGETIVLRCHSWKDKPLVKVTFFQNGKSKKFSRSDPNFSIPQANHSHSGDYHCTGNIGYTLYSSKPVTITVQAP

T2: FcγRIIb extracellular domain with C-terminal His tag (human, UniProt P31994 43-217)
T2 construct: extracellular domain; also called FcgRIIb; 2b; not shown: His tag attached to the C terminus
T2 sequence (looked up): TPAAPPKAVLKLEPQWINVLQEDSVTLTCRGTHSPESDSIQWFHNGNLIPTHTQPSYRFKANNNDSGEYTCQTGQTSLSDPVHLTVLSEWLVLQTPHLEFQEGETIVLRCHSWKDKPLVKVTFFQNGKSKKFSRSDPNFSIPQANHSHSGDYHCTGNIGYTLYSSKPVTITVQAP


How the values were obtained:
[1] = target: T3, FcγRIIIa extracellular domain with C-terminal His tag (human, UniProt P08637 17-208); assay: SPR (Biacore); ratio of He/Con_3a (FcγRIIIa) to He/Con_2b (FcγRIIb)
T3 construct: extracellular domain; also called 3a; FcgRIIIa; not shown: His tag at the C terminus
T3 sequence (P08637 17-208): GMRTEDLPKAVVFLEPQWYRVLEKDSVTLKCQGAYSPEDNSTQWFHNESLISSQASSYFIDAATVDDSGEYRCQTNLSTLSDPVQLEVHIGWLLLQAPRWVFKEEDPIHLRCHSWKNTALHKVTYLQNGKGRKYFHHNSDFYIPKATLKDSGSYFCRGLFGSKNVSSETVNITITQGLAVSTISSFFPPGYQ

[2] = target: T1, FcγRIIb extracellular domain with …; assay: SPR (Biacore), relative to GpH7-A5/GpH7-B3/GpL16-k0 = 100
[3] = target: T3, FcγRIIIa extracellular domain with …; assay: as above
[4] = target: T2, FcγRIIb extracellular domain with …; assay: SPR (Biacore), antibody captured on antigen peptide chip, FcγR as analyte; relative binding
Protocol: (§1) The heterodimerized antibodies He Abs in which one of the H chains was introduced with an alteration were assayed for their binding activities to each activating FcγR and inhibitory FcγR according to the method described in Example 4. […] The activating FcγRs in FIGS. 26, 27, 28, and 29 are FcγRIa, FcγRIIa (R), FcγRIIa (H), and FcγRIIIa, respectively.
(§2) Analysis of interaction between objective antibody and the FcγR was carried out using Biacore T100 (GE Healthcare). HBS-EP+ (GE Healthcare) was used as the running buffer, and the measurement temperature was set to 25° C. Chips produced by immobilizing the antigen peptide by the amine coupling method to a Series S Sencor Chip CM5 (GE Healthcare), or alternatively, chips produced by allowing preliminarily biotinylated antigen peptides to interact with and immobilize onto a Series S Sensor Chip SA (certified) (GE Healthcare) were used. Antibodies of interest were captured onto an antigen peptide-immobilized chip, and allowed to interact to each FcγR diluted with running buffer. To regenerate and repeatedly use the chip, the antibodies captured on the chip were washed off by reacting 10 mM glycine-HCl, pH 1.5.

[5] = target: T4, FcγRIIIa extracellular domain with C-terminal His tag (human, UniProt P08637 17-208); assay: as above
T4 construct: extracellular domain; also called FcgRIIIa; 3a; not shown: His tag attached to the C terminus
Protocol: as §1, §2
T4 sequence (P08637 17-208): as above

Binder	He_3a/2b (IIIa/IIb) [1]	He/Con_2b [2]	He/Con_3a [3]	He/Con_2b [4]	He/Con_3a [5]
GpH7-A5/GpH7-B3 variant G237_15Y/GpL16-k0 (antibody, human IgG1, kappa, IgG1, anti-glypican-3; also called He Ab) heavy 1: not shown heavy 2: not shown light: DIVMTQSPLSLPVTPGEPASISCQASESLVHSNRNTYLHWYLQKPGQSPQLLIYKVSNRFSGVPDRFSGSGSGTDFTLKISRVEAEDVGVYYCSQNTHVPPTFGQGTKVEIERTVAAPSVFIFPPSDEQLKSGTASVVCLLNNFYPREAKVQWKVDNALQSGNSQESVTEQDSKDSTYSLSSTLTLSKADYEKHKVYACEVTHQGLSSPVTKSFNRGEC	0.14	152 % (control = 100)	22.1 % (control = 100)		
GpH7-A5/GpH7-B3 variant P331_03V/GpL16-k0 (He Ab) (antibody, human IgG1, kappa, Heterodimerized antibody with the alteration in one H chain only) heavy 1: not shown heavy 2: not shown light: DIVMTQSPLSLPVTPGEPASISCQASESLVHSNRNTYLHWYLQKPGQSPQLLIYKVSNRFSGVPDRFSGSGSGTDFTLKISRVEAEDVGVYYCSQNTHVPPTFGQGTKVEIERTVAAPSVFIFPPSDEQLKSGTASVVCLLNNFYPREAKVQWKVDNALQSGNSQESVTEQDSKDSTYSLSSTLTLSKADYEKHKVYACEVTHQGLSSPVTKSFNRGEC				119 % of GpH7-A5/GpH7-B3/GpL16-k0 (=100)	73.2 % of GpH7-A5/GpH7-B3/GpL16-k0 (=100)
GpH7-A5/GpH7-B3 variant G237_16H/GpL16-k0 (antibody, human IgG1, kappa, IgG1, anti-glypican-3; also called He Ab) heavy 1: not shown heavy 2: not shown light: DIVMTQSPLSLPVTPGEPASISCQASESLVHSNRNTYLHWYLQKPGQSPQLLIYKVSNRFSGVPDRFSGSGSGTDFTLKISRVEAEDVGVYYCSQNTHVPPTFGQGTKVEIERTVAAPSVFIFPPSDEQLKSGTASVVCLLNNFYPREAKVQWKVDNALQSGNSQESVTEQDSKDSTYSLSSTLTLSKADYEKHKVYACEVTHQGLSSPVTKSFNRGEC	0.31	55.2 % (control = 100)	17.2 % (control = 100)		
GpH7-A5/GpH7-B3 variant G237_18N/GpL16-k0 (antibody, human IgG1, kappa, IgG1, anti-glypican-3; also called He Ab) heavy 1: not shown heavy 2: not shown light: DIVMTQSPLSLPVTPGEPASISCQASESLVHSNRNTYLHWYLQKPGQSPQLLIYKVSNRFSGVPDRFSGSGSGTDFTLKISRVEAEDVGVYYCSQNTHVPPTFGQGTKVEIERTVAAPSVFIFPPSDEQLKSGTASVVCLLNNFYPREAKVQWKVDNALQSGNSQESVTEQDSKDSTYSLSSTLTLSKADYEKHKVYACEVTHQGLSSPVTKSFNRGEC	0.11	180 % (control = 100)	20.3 % (control = 100)		

Second part, the binder after the results:

He_3a/2b (IIIa/IIb) [1]	He/Con_2b [2]	He/Con_3a [3]	He/Con_2b [4]	He/Con_3a [5]	Binder
			172 % of GpH7-A5/GpH7-B3/GpL16-k0 (=100)	53.4 % of GpH7-A5/GpH7-B3/GpL16-k0 (=100)	GpH7-A5/GpH7-B3 variant L328_10E/GpL16-k0 (He Ab) (antibody, human IgG1, kappa, Heterodimerized antibody with the alteration in one H chain only) heavy 1: not shown heavy 2: not shown light: DIVMTQSPLSLPVTPGEPASISCQASESLVHSNRNTYLHWYLQKPGQSPQLLIYKVSNRFSGVPDRFSGSGSGTDFTLKISRVEAEDVGVYYCSQNTHVPPTFGQGTKVEIERTVAAPSVFIFPPSDEQLKSGTASVVCLLNNFYPREAKVQWKVDNALQSGNSQESVTEQDSKDSTYSLSSTLTLSKADYEKHKVYACEVTHQGLSSPVTKSFNRGEC
0.78	150 % (control = 100)	117 % (control = 100)			GpH7-A5/GpH7-B3 variant L234_09D/GpL16-k0 (antibody, human IgG1, kappa, IgG1, anti-glypican-3; also called He Ab) heavy 1: not shown heavy 2: not shown light: DIVMTQSPLSLPVTPGEPASISCQASESLVHSNRNTYLHWYLQKPGQSPQLLIYKVSNRFSGVPDRFSGSGSGTDFTLKISRVEAEDVGVYYCSQNTHVPPTFGQGTKVEIERTVAAPSVFIFPPSDEQLKSGTASVVCLLNNFYPREAKVQWKVDNALQSGNSQESVTEQDSKDSTYSLSSTLTLSKADYEKHKVYACEVTHQGLSSPVTKSFNRGEC
0.55	57.4 % (control = 100)	31.4 % (control = 100)			GpH7-A5/GpH7-B3 variant P238_02A/GpL16-k0 (antibody, human IgG1, kappa, IgG1, anti-glypican-3; also called He Ab) heavy 1: not shown heavy 2: not shown light: DIVMTQSPLSLPVTPGEPASISCQASESLVHSNRNTYLHWYLQKPGQSPQLLIYKVSNRFSGVPDRFSGSGSGTDFTLKISRVEAEDVGVYYCSQNTHVPPTFGQGTKVEIERTVAAPSVFIFPPSDEQLKSGTASVVCLLNNFYPREAKVQWKVDNALQSGNSQESVTEQDSKDSTYSLSSTLTLSKADYEKHKVYACEVTHQGLSSPVTKSFNRGEC
0.77	76.9 % (control = 100)	59.1 % (control = 100)			GpH7-A5/GpH7-B3 variant L235_16H/GpL16-k0 (antibody, human IgG1, kappa, IgG1, anti-glypican-3; also called He Ab) heavy 1: not shown heavy 2: not shown light: DIVMTQSPLSLPVTPGEPASISCQASESLVHSNRNTYLHWYLQKPGQSPQLLIYKVSNRFSGVPDRFSGSGSGTDFTLKISRVEAEDVGVYYCSQNTHVPPTFGQGTKVEIERTVAAPSVFIFPPSDEQLKSGTASVVCLLNNFYPREAKVQWKVDNALQSGNSQESVTEQDSKDSTYSLSSTLTLSKADYEKHKVYACEVTHQGLSSPVTKSFNRGEC
